US10322164B2, “Modulation of cellular localization of cyclin C” (Rowan University, priority 2014, dated 2019)

Legend:
HeLa cells = test: Cyclin C localization in stressed HeLa cells; type: cell-based, human
Procedure: (FIG. 14A) cyclin C localization in H2O2 stressed cultures as indicated. See (FIG. 14B) for enlarged images for 6 hr+H2O2 cells. (FIG. 14C) Knockdown efficiency of cyclin C by siRNA. con=scrambled siRNA control. Annexin V studies in the cultures described in (FIG. 14D). Graph illustrates % annexin V positive cells for cells with and without Cyclin C siRNA knockdown in the presence or absence of H2O2. Error bars=s.e.m. Three independent cultures were assayed for each sample.
(§1) Cells were cultured on coverslips then fixed with 4% paraformaldehyde for 20 min, permeabilized with 0.2% Triton X-100 for 15 min, blocked with 2% BSA, and incubated with antibodies as indicated. The cells were mounted with DAPI-containing medium (Vector Labs) and the images were acquired with Nikon Eclipse 90i microscope equipped with a Retiga Exi CCD camera and NIS software for data analysis. DAPI (5 μg/ml) and Mitotracker Red (5 μg/ml) staining was used to identify nuclear and mitochondrial subcellular localization.
(§2) To evaluate the role of cyclin C in PCD execution, CCNC specific siRNAs were used to knockdown cyclin C. The knockdown efficiency was about 70% compared to control (FIG. 14C).

MCF-10A cells = test: Cyclin C localization and mitochondrial fission in stressed MCF-10A cells; type: cell-based, human; settings: H2O2 0.4 mM for 4 h
Procedure: (§3) (FIG. 15A) cyclin C localization was followed in MCF-7 or MCF-10A cells exposed to H2O2 (0.4 mM) for 4 h. (FIG. 15B) cyclin C levels were monitored by Western blot in MCF-7 cells treated with (+) or without (−) CCNC specific siRNAs. β-tubulin levels were followed as a loading control. (FIG. 15C) Viability was measured (viable stain assays) in the cell lines described in (FIG. 15B) following 4 h H2O2 exposure as indicated.
as §1, §2

[1] = tested on: Drp1 phosphorylation at the activating serine (Ser616); test: Drp1 Ser616 phosphorylation in Hela cells subjected to H2O2; type: cell-based, human
Excerpt: (§4) For phosphorylation, both inhibitory and stimulatory modifications have been identified. For example, cyclin B-Cdk1 phosphorylation at the G2/M boundary stimulates Drp1 activity to induce fission to promote mitochondrial partitioning during mitosis. This modification is clearly observed in cells arrested at the G2/M boundary following addition of the microtubule destabilizing agent nocodazole. Therefore, one possibility is that cytoplasmic cyclin C is now free to interact with another Cdk to modify Drp1 and induce fission. However, no increase was found in Drp1 phosphorylation at the activating serine (Ser616) in Hela cells subjected to H2O2 or in permeabilized CCNC^−/−MEF cells treated with GST-cyclin C. […] It is possible that the accelerated fission in these experiments results in de-phosphorylation of Ser616 helping attenuate mitochondrial fragmentation.

[2] = tested on: MCF-7 breast cancer cell line; test: Cyclin C localization in stressed MCF-7 cells; type: cell-based, human; settings: H2O2 0.4 mM for 4 h
Procedure: as §3, §1, §2

[3] = target: T1, cyclin C-Med13 interaction (Mus musculus, UniProt Q5SWW4); test: Cyclin C localization and mitochondrial morphology in MEF cells incubated with TAT-HAD or control peptide (indirect immunofluorescence); type: cell-based
T1 construct: endogenous in cells; host or cells: wild type (CCNC+/+) mouse embryonic fibroblasts, SV40 T antigen immortalized
Procedure: The amino terminal sequences of cyclin C from the indicated organisms. Homologies are shaded. Boxed region is targeted using the HIV TAT basic domain fused to the 19 amino acid (aa) peptide indicated by the line above the sequence. (FIG. 11B) Representative images of MEF cells incubated with TAT-HAD peptide or control (25 μM) for three hours then fixed and stained for the nucleus (DAPI), mitochondria (MitoTracker Red) and cyclin C (α-cyclin C). Arrows indicate regions of interaction between cyclin C and mitochondria.
as §1
CCNC^+/+ and CCNC^−/− MEF cells were treated with 0.4 mM H2O2 for 4 hrs. Mitochondrial morphology was monitored by MitoTracker Red staining. The cells were imaged with the 60× objective on the Nikon Eclipse C1Ti confocal microscope equipped with a Ds-Qi1MC CCD camera. The TAT-HAD peptide was added to log phase unstressed wild type MEF cultures for 3 h prior to image acquisition.
A highly conserved region of cyclin C has been identified [Cooper, K. F. and R. Strich, Functional analysis of the Ume3p/Srb11p-RNA polymerase II holoenzyme interaction. Gene Expr, 1999. 8(1): p. 43-57; Cooper, K. F., S. Khakhina, S. K. Kim, and R. Strich, Stress-Induced Nuclear-to-Cytoplasmic Translocation of Cyclin C Promotes Mitochondrial Fission in Yeast, Dev Cell, 2014. 28: p. 161-173.], boxed, FIG. 11A) that is responsible for Med13 binding in yeast. […]

[4] = tested on: Drp1 phosphorylation at the activating serine (Ser616); test: Drp1 Ser616 phosphorylation in permeabilized CCNC-/- MEF cells treated with GST-cyclin C; type: cell-based, mouse
Excerpt: as §4

[5] = tested on: permeabilized CCNC^−/−MEF cells; test: Mitochondrial fragmentation in digitonin-permeabilized CCNC-/- MEF cells after adding GST fusion proteins (live confocal microscopy); type: cell-based, mouse
Procedure: To examine whether cyclin C was sufficient to induce fission or if additional stress-specific signals were required, permeabilized CCNC^−/−MEF cells were used and E. coli purified human GST-cyclin C (Hs GST-cyclin C). The CCNC^−/−null cell line was employed to avoid any contribution from endogenous cyclin C. GST-cyclin C or GST (˜4 nM) was added to digitonin treated cells and mitochondrial morphology was monitored in living cells by confocal microscopy. Images were collected for 18 min at 2 min increments. […] Deconvolved images reveled little detectable changes in mitochondrial morphology in the GST treated cultures up to 18 min (9.3%). […] To determine if this function is conserved, the activity of the yeast cyclin C fused to GST (GST-cyclin C Sc) was also examined. […] To determine if the quantity of GST-cyclin C added was rate limiting, this experiment was repeated with twice the GST-cyclin C Hs concentration as before.

[6] = permeabilized CCNC-/- MEF cells

T1 sequence (Q5SWW4 whole entry): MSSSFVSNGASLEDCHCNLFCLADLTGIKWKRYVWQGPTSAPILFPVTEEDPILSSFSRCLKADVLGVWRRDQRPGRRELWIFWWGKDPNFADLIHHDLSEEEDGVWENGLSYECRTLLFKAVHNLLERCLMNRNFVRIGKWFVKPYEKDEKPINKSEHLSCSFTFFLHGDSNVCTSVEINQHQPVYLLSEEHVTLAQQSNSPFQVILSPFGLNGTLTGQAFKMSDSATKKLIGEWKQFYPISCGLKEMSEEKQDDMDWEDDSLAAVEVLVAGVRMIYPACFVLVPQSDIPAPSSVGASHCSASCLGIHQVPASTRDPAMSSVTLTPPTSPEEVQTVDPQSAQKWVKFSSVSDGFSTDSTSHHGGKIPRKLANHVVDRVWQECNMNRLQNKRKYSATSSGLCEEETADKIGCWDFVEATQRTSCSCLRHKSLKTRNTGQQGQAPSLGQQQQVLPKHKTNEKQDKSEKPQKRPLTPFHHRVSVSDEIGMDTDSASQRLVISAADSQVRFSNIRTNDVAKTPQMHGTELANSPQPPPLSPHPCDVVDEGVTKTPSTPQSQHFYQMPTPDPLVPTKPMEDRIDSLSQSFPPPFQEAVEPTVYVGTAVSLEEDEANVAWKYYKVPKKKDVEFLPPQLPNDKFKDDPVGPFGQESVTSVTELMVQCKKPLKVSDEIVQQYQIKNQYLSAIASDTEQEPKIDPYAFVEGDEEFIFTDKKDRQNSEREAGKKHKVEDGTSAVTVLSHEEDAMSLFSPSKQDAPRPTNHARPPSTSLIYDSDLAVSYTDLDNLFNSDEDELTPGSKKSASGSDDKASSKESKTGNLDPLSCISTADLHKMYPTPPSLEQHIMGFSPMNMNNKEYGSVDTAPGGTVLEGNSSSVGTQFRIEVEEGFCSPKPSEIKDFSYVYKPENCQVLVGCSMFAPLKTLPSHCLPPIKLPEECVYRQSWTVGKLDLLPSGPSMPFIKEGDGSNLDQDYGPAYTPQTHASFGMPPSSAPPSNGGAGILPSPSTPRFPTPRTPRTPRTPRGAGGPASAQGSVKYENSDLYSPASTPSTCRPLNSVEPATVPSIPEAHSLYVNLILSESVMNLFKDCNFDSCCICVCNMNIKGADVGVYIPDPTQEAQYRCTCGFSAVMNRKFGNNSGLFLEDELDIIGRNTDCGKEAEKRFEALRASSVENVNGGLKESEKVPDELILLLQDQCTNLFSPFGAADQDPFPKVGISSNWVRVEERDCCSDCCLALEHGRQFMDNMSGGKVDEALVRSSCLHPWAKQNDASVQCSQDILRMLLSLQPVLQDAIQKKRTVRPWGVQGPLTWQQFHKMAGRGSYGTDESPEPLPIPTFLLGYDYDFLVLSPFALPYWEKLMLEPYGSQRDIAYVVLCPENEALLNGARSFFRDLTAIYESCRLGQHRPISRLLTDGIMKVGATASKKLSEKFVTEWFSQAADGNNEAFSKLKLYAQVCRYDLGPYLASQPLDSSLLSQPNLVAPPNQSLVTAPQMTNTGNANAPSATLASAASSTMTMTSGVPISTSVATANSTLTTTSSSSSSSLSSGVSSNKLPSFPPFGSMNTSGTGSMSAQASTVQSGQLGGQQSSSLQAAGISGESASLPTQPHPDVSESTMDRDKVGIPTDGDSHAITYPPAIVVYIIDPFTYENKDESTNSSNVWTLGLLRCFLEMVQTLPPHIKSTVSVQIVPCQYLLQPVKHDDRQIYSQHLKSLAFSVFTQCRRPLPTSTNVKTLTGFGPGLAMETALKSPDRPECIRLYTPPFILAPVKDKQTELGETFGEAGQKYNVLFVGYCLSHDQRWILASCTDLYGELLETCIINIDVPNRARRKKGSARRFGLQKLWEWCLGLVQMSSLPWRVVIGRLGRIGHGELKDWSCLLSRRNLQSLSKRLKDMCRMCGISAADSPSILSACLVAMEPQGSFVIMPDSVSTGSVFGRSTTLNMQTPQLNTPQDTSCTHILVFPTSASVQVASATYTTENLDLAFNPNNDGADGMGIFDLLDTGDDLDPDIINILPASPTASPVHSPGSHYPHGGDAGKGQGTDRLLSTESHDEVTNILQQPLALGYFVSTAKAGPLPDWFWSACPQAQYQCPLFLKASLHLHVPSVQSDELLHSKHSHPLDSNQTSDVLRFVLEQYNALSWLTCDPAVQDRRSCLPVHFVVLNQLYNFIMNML

OO [H2O2]
cyclin C localization (HeLa cells): translocated from the nucleus to the cytoplasm
cyclin C relocalization and mitochondrial fission (MCF-10A cells): normal cyclin C relocalization and mitochondrial fission
Drp1 phosphorylation at Ser616 [1]: no increase
cyclin C localization [2]: remained nuclear

N.N.[Cl][Pt][Cl] [cisplatin]
cyclin C localization [2]: remained nuclear

YGRKKRRQRRRWILDKQDLLKERQKDL (SEQ ID NO:6) (YGRKKRRQRRRWILDKQDLLKERQKDLKFL) [TAT-HAD peptide, HIV TAT basic domain fused to the cyclin C holoenzyme association domain (HAD) peptide]
time within which the translocation/fragmentation phenotype was lost [3]: ≤ 24 h
cyclin C localization ([3]; peptide 25 μM, three hours): nuclear to cytoplasmic cyclin C translocation
mitochondrial morphology ([3]; peptide 25 μM, three hours, MitoTracker Red): abnormal fragmented morphology

B1: GST-cyclin C: E. coli purified human GST-cyclin C (protein, UniProt P24863 1-283, looked up)
Cyclin-C: MAGNFWQSSHYLQWILDKQDLLKERQKDLKFLSEEEYWKLQIFFTNVIQALGEHLKLRQQVIATATVYFKRFYARYSLKSIDPVLMAPTCVFLASKVEEFGVVSNTRLIAAATSVLKTRFSYAFPKEFPYRMNHILECEFYLLELMDCCLIVYHPYRPLLQYVQDMGQEDMLLPLAWRIVNDTYRTDLCLLYPPFMIALACLHVACVVQQKDARQWFAELSVDMEKILEIIRVILKLYEQWKNFDERKEMATILSKMPKPKPPPNSEGEQGPNGSQNSSYSQS
modifications: GST tag
Drp1 phosphorylation at Ser616 [4, 6]: no increase
quantitation of the Ser616 phosphorylation signal ([4]; permeabilized cells): reduced
time to total mitochondrial fragmentation ([5]; twice the GST-cyclin C Hs concentration): ≤ 8 min
time at which significant mitochondrial fragmentation began ([5]; ~4 nM protein): ≤ 10 min
percentage of culture exhibiting fragmented mitochondria by 18 min ([5]; ~4 nM protein, digitonin treated cells, 8-10% fragmented prior to treatment): 94%

B2: GST-cyclin C Sc: yeast cyclin C fused to GST (protein, UniProt P47821 1-323, looked up)
RNA polymerase II holoenzyme …: MSGSFWTSTQRHHWQYTKASLAKERQKLWLLECQLFPQGLNIVMDSKQNGIEQSITKNIPITHRDLHYDKDYNLRIYCYFLIMKLGRRLNIRQYALATAHIYLSRFLIKASVREINLYMLVTTCVYLACKVEECPQYIRTLVSEARTLWPEFIPPDPTKVTEFEFYLLEELESYLIVHHPYQSLKQIVQVLKQPPFQITLSSDDLQNCWSLINDSYINDVHLLYPPHIIAVACLFITISIHGKPTKGSSLASAASEAIRDPKNSSSPVQIAFNRFMAESLVDLEEVMDTIQEQITLYDHWDKYHEQWIKFLLHTLYLRPASAI
modifications: GST tag
efficiency of inducing mitochondrial fission compared with human cyclin C [5, 6]: as efficient inducing mitochondrial fission as the human cyclin C
